One block for each substance: values may come before it.
How the values were obtained:
[1] = molecular target: double-labelled SecYEG(Bpy/Trp) (E. coli) (UniProt P0AGA2)
[2] = molecular target: double-labelled SecYEG(Bpy/Trp) (E. coli) (UniProt P0AGA2); remark: listed apart in the source
[3] = molecular target: SecYEG translocon embedded in nanodiscs, labelled for FRET titrations (E. coli) (UniProt P0AGA2); experiment: FRET or BRET; titration of nanodisc-embedded translocon with vacant ribosomes or Lep75-RNC (Supplementary Fig. 3); FRET between labels in the translocon and the ribosome is told for panel c; buffer A (20 mM HEPES pH 7.5, 70 mM NH4Cl, 30 mM KCl, 7 mM MgCl2, 10% glycerol), 25 °C
[4] = molecular target: SecYEG translocon embedded in nanodiscs, labelled for FRET titrations (E. coli) (UniProt P0AGA2); experiment: FRET or BRET; titration monitoring FRET between labels in the translocon and the ribosome, at the lower temperature (4 °C)

DsbA100-RNC, sequence (P0AEG4 whole entry, looked up): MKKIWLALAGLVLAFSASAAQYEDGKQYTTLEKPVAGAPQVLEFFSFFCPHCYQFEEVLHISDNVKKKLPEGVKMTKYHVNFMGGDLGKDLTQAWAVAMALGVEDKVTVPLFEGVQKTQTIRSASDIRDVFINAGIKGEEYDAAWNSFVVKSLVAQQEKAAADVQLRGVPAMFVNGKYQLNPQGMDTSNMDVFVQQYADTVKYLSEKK

- increase of Bpy fluorescence of nanodisc-embedded SecYEG(Bpy/Trp) (50 nM) on addition of DsbA100-RNC (200 nM), 25 °C [1]: > 20%
Substance: DsbA100-RNC (from UniProt P0AEG4 1-208) (complex)

- increase of Bpy fluorescence of nanodisc-embedded SecYEG(Bpy/Trp) (50 nM) on addition of Lep75-RNC (200 nM), 25 °C (loss of PET quenching, lateral gate opening) [2]: 30%
- net increase of Bpy fluorescence of SecYEG(Bpy/Trp) on Lep75-RNC binding, after the change seen with single-labelled SecYEG(Bpy), 25 °C [2]: 25%
- Kd [3]: 10 nM
Substance: Lep75-RNC (ribosome-nascent-chain complex carrying 75 N-terminal amino acids of leader peptidase) (from UniProt P00803 1-75)

- increase of Bpy fluorescence of nanodisc-embedded SecYEG(Bpy/Trp) (50 nM) on addition of TolB100-RNC (200 nM), 25 °C [1]: > 20%
Substance: TolB100-RNC (from UniProt P0A855 1-430) (complex)

- increase of Bpy fluorescence of nanodisc-embedded SecYEG(Bpy/Trp) (50 nM) on addition of vacant 70S ribosomes (200 nM), 25 °C (loss of PET quenching, lateral gate opening) [2]: 15%
- increase of Bpy fluorescence of SecYEG(Bpy/Trp) solubilised with detergent (0.03% DDM, no nanodisc) on addition of non-translating ribosomes, 25 °C [1]: 15%
- Kd [3]: 20 nM
- Kd [4]: 10 nM
Substance: vacant 70S ribosomes from E. coli MRE600 (complex)

From article PMC4218953
